Our source for the Km, kcat and kcat/Km values is publication PMC4200780, “Biochemical Characterization of a Carboxylesterase from the Archaeon Pyrobaculum sp. 1860 and a Rational Explanation of Its Substrate Specificity and Thermostability” (International Journal of Molecular Sciences, 2014).

Test in all cases: p-nitrophenol release, Lineweaver-Burk
Common to all, as to assay type: biochemical, Pyrobaculum ferrireducens

Substrate in series [1]: CCCC(=O)Oc1ccc([N+](=O)[O-])cc1
To be noted: 50 mM Tris-HCl pH 9.0, 80 °C. An excerpt:
(§1) p-nitrophenol release, Lineweaver-Burk on rP186_1588 ([…]_1588)

Substrate in series [2]: CCCCCCCCCC(=O)Oc1ccc([N+](=O)[O-])cc1
To be noted: 50 mM Tris-HCl pH 9.0, 80 °C, substrate tested at 0.1-3 mM only.
Excerpt: as §1

Substrate in series [3]: CC(=O)Oc1ccc([N+](=O)[O-])cc1
To be noted: 50 mM Tris-HCl pH 9.0, 80 °C.
Excerpt: as §1

Substrate in series [4]: CCCCCCCC(=O)Oc1ccc([N+](=O)[O-])cc1
To be noted: 50 mM Tris-HCl pH 9.0, 80 °C.
Excerpt: as §1

B1: rP186_1588 (P186_1588) (Pyrobaculum ferrireducens) (protein)
chain: MSEKYVAVEGRRVRYLVGGSGRPVVLLHGWSFNADTWVESGVFNSLAGHFAVYAIDMPYGIRTKSERFQAPRREYAVFLRRVLDALDLADPPLVGPSASGEVVLWYVAKRLPTRAAVVVGPVGLAGELLEELRGAGVPILAVWGEGDEVSPPSRASLLRDVAKVVILRDAGHAAYLDKPGEFVEVVLDFLRGVY
notes: full length 194 aa (21,131 Da calculated, ~23 kDa on SDS-PAGE), His-tagged, synthetic gene in pET-28a(+) NdeI/BamHI, E. coli BL21(DE3), Ni-NTA purified, tag removal not mentioned
A word on the Km: it is the concentration of substrate that gives half-maximal velocity. One may read the kcat as the maximal rate divided by the concentration of active sites. Broadly, the kcat/Km is the second-order rate constant that governs catalysis at low substrate concentration. As to B1, the Michaelis-Menten constant (Km) in series [1] amounted to 1270 ± 40 µM; in series [2] it was 4990 ± 210 µM; in series [3], 350 ± 10 µM; in series [4], 2640 ± 140 µM. Also, the kcat was 9.12 ± 0.62 s⁻¹ in series [1], 6.19 ± 0.33 s⁻¹ in series [2], 11.7 ± 0.48 s⁻¹ in series [3] and 6.36 ± 0.28 s⁻¹ in series [4]. Besides, the kcat/Km in series [1] was 7180 ± 190 M⁻¹ s⁻¹; in series [2], 1240 ± 70 M⁻¹ s⁻¹; in series [3] it was 33300 ± 1370 M⁻¹ s⁻¹; in series [4] it was 2410 ± 110 M⁻¹ s⁻¹.
